We go through two molecules from patent US20230374151A1 (GlaxoSmithKline, published 2023).

Changes are numbered by the printed parent chain. Several values for one entry are separate records, joined by “and”; a condition that tells them apart may be missing. Equal entries are not always repeated.

Assay [1] has as its target T1, TnMUC1 peptide (fully glycosylated), biotinylated.
T1 construct: Two batches (36-2 and 65-1) of the same peptide; also called 36-2; 7-36-2
In words: SPR (Biacore T200): biotinylated TnMUC1 peptide batch 65-1 captured on CAP chip, scFv as analyte.

Assay [2] concerns the target T1, TnMUC1 peptide (fully glycosylated), …. The assay can be described thus: SPR (Biacore T200): biotinylated TnMUC1 peptide batch 65-1 captured on CAP chip, scFv as analyte, 1:1 fit, average. On the procedure:
(§1) Biotin CAPture Reagent was captured onto the active and reference flow cells for 300 seconds at 2 μl/min. The biotinylated peptides were diluted in BIAcore Running Buffer (as described above) and captured onto the active flow cell only, at a flow rate of 10 μl/min to obtain the capture level calculated in the equation detailed above.
(§2) The humanised anti-TnMUC1 scFv proteins were passed over the reference and active flow cells at 500, 125, 31.25, 7.8, 1.9, 0 nM for binding to TnMUC1 and MUC1 peptides with a 300 second association followed by a 900 seconds dissociation with BIAcore Running Buffer at a flow rate of 30 μl/min.
(§3) BIAcore T200 Evaluation Software v3.0 was used to analyse the data. The data obtained has been fitted to a 1:1 binding model with the Rmax parameter set to local. As this is a capture experiment, a local Rmax parameter would be truly reflective as the protein is recaptured every time and theoretically surface is slightly different at each recapture, possibly producing slightly different capture each time. Kinetic Parameters (KD, kd and kₐ) were calculated for all the humanised anti-TnMUC1 scFv proteins.
For orientation: SPR reads the build-up and loss of mass on a sensor chip optically.

Assay [3] addresses T2, STnMUC1 peptide, biotinylated.
T2 construct: also called STn peptide; 35-1
The assay can be described thus: SPR (Biacore T200), STnMUC1 peptide on CAP chip, scFv as analyte. The procedure: (§4) The CAP chip (from the Biotin CAPture kit) was docked into BIAcore T200 instrument to hydrate overnight, as per manufacturer instructions. When the chip is docked (for the first time or after storage), the surface of the sensor chip needs to be conditioned with 3×1 minute injections of Regeneration Solution (from the Biotin CAPture kit). Regeneration Solution was prepared by mixing 3 parts of Regeneration Stock 1 (8M Guanidine-HCl) with 1-part Regeneration Stock 2 (1M NaOH). Both the reference and active flow cells of the sensor chip were conditioned with 3×60 second injections of Regeneration Solution at a flow rate of 10 μl/min.
as §1

Assay [4] has as its target T1, TnMUC1 peptide (fully glycosylated), …. The assay can be described thus: SPR (Biacore T200), peptide 36-2 on CAP chip, scFv as analyte, 1:1 fit; average, restated in nM. The procedure: as §1, §2, §3
Assay [5] shares this target. In words: SPR (Biacore T200), peptide 36-2 on CAP chip, scFv as analyte, 1:1 fit; average. On the procedure:
as §1, §2, §3

In assay [6] the target is T3, MUC1 peptide (non-glycosylated), biotinylated (N-terminal Biotin-PEG2; C-terminal amide).
T3 construct: also called 36-4; 7-36-4
T3 peptide: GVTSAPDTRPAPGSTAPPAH
In words: SPR (Biacore T200): biotinylated peptide captured on CAP chip, scFv as analyte.

The target in assay [7] is T2, STnMUC1 peptide, biotinylated. In words: SPR (Biacore T200): biotinylated STnMUC1 peptide (35-1) captured on CAP chip, scFv as analyte. On the procedure:
as §4, §1

The target is the same in assay [8]. The description is as above. This is another data set of the same source.
For assay [9] the target is unchanged. In words: SPR (Biacore T200): biotinylated STnMUC1 peptide (35-1) captured on CAP chip, scFv as analyte, 1:1 fit, average.
Assay [10] addresses T4, TnMUC1 peptide 1 (partially glycosylated), biotinylated.
T4 construct: also called 96-1; 32A
In words: SPR (Biacore T200): biotinylated TnMUC1 peptide 1 (96-1) captured on CAP chip, scFv as analyte, 1:1 fit, average. The procedure:
as §1, §2, §3

Assay [11] addresses T1, TnMUC1 peptide (fully glycosylated), …. The assay can be described thus: SPR (Biacore T200), peptide 36-2 on CAP chip, scFv as analyte, 1:1 fit; single run. The procedure:
as §1, §2, §3

In assay [12] the target is T4, TnMUC1 peptide 1 (partially …). In words: SPR (Biacore T200): biotinylated TnMUC1 peptide 1 (96-1) captured on CAP chip, scFv as analyte.
Assay [13] addresses T3, MUC1 peptide (non-glycosylated), …. The assay can be described thus: SPR (Biacore T200), biotinylated peptide on CAP chip, scFv as analyte.

B1: humanised anti-TnMUC1 scFv protein 13P16 (97A), L2-H3 (scFv)
scFv: DIVMTQSPDSLAVSLGERATINCKSSQSLLNSGDQKNYLTWYQQKPGQPPKLLIFWASTRESGVPDRFSGSGSGTDFTLTISSLQAEDVAVYYCQNDYSYPLTFGQGTKLEIKGGGGSGGGGSGGGGSGGGGSQVQLVQSGAEVKKPGSSVKVSCKASGYTFTDHAIHWVRQAPGQGLEWMGHFSPGNTDIKYNDKFKGRVTITADKSTSTAYMELSSLRSEDTAVYYCKTSTFFFDYWGQGTTVTVSSAAAHHHHHH
notes: Supernatant of construct 6D16 in the Octet assay; purified 13P16 elsewhere. scFv of CAR MB024; also called 6D16
Broadly, the Kd is the free concentration of one partner at which half of the binding sites on the other are occupied at equilibrium, for simple one-to-one binding. The koff is the first-order rate constant of dissociation. A low value points to slow dissociation. What is called kon is a measure of how fast the partners come together. Low readings indicate slow association, high ones fast association. As for B1, the Kd in assay [1] stood at 195 nM; in [2] it was 195 nM; in [4], 174 nM; in [5], 174 nM; in [7] it was 445 nM; in [8], 445 nM. In addition, the Kd in assay [9] is 445 nM; in assay [10], 231 nM; in assay [11], 166 nM and 181 nM; in [12] it was 231 nM. Further, the koff in assay [1] came to 0.00633 s⁻¹; in assay [2], 0.00633 s⁻¹; in assay [5] it was 0.00653 s⁻¹; in [7], 0.00117 s⁻¹; in assay [9] it was 0.00117 s⁻¹; in assay [10], 0.00635 s⁻¹. Besides, the koff in [11] is 0.00654 s⁻¹ and 0.00652 s⁻¹; in assay [12], 0.00635 s⁻¹. Besides, the kon in assay [1] was found to be 32600 M⁻¹ s⁻¹; in [2], 32600 M⁻¹ s⁻¹; in [5] it was 37800 M⁻¹ s⁻¹; in assay [7] it was 2630 M⁻¹ s⁻¹; in assay [9] it was 2630 M⁻¹ s⁻¹; in assay [10] it was 27500 M⁻¹ s⁻¹. Also, the kon in assay [11] is 39500 M⁻¹ s⁻¹ and 36100 M⁻¹ s⁻¹; in assay [12], 27500 M⁻¹ s⁻¹. Further, the “fold lower affinity than the murine 5E5 scFv protein” value in assay [3] was roughly 10 fold. Further, the binding result in [6] is “no binding”.

B2: humanised anti-TnMUC1 scFv protein 16P4 (82A), L0-H3 (scFv)
scFv: B1 scFv with F55Y
notes: Supernatant of construct 6D4 in the Octet assay; purified 16P4 elsewhere. scFv of CAR MB021; also called 6D4
With B2, the Kd in assay [2] was 208 nM; in [4] it was 196 nM; in assay [5], 196 nM; in assay [8], 536 nM; in [9] it was 536 nM; in assay [10], 250 nM. Also, the Kd in [11] was 195 nM and 197 nM. The off-rate (koff) was 0.00698 s⁻¹ in assay [2]; 0.00687 s⁻¹ in assay [5]; 0.00122 s⁻¹ in assay [9]; 0.00708 s⁻¹ in assay [10]; 0.00694 s⁻¹ and 0.0068 s⁻¹ in assay [11]. Also, the kon is 33900 M⁻¹ s⁻¹ in assay [2]; 35100 M⁻¹ s⁻¹ in assay [5]; 2290 M⁻¹ s⁻¹ in [9]; 28500 M⁻¹ s⁻¹ in assay [10]; 35600 M⁻¹ s⁻¹ and 34500 M⁻¹ s⁻¹ in assay [11]. Also, the “fold lower affinity than the murine 5E5 scFv protein” value in assay [3] is roughly 10 fold. In [13], the binding result is “no binding (tested: 500 nM)”.
